Measured values reported in US20220412975A1, “CHARACTERIZING MODULATORS OF ADAMTS-7 AND ADAMTS-12” (The Broad Institute, Inc., priority 2019, published 2022).
*: point of attachment. HiLyteFluor‑488 = fluorophore label at the N-terminus; donor fluorophore = not defined here; K(Quencher) = not defined here; K(quencher) = not defined here; Donor = not defined here; Acm = CC(=O)NC*

Legend:
Format in all cases: biochemical
[1] = target: T1, rPro-hCD ADAMTS-7 (SEQ ID NO: 1) (Homo sapiens, UniProt Q9UKP4, A119V/A123T/A127T/A171V/A193G/A200T/A28V/A36P/A42G/A66V/A78S/A97T/D77A/DEL186-188/DEL228-233/E133D/E190K/E213K/E83Q/G114S/G115N/G117S/G196D/G27H/H100Y/H124S/H234Q/K153R/L143F/L192S/L20I/P189H/P201S/P29L/P33S/P79S/Q99P/R118N/R122Q/R174Q/R195Q/R215Q/R218H/R35L/R75A/R76Q/R87Q/R92L/S170E/S199R/S202G/S214H/T110I/T125V/V182M/V208G/V74A/W225K/Y209S); assay: FRET peptide substrate cleavage by rPro-hCD (SEQ ID NO: 1); settings: for kcat, Enzyme SEQ ID NO: 1: rPro-hCD: approx. 100 nM enzyme, 10 μM peptide substrate; for cleavage activity with ADAMTS-7 human catalytic domain constructs (in words): rPro-hCD (SEQ ID NO: 1) and FM2 (SEQ ID NO: 2) constructs; for activity profile of modified S1 substrates (in words): S1 peptide with additional hydrophilic moiety, data not shown
T1 construct: rat ADAMTS-7 signal peptide + prodomain (rat 1-217), fusion partner (N); 2xStrep tag (C); 6xHis tag (C); made in house; host or cells: Expi293 cells
T1 sequence (Q9UKP4 with tags, fused parts or gaps with the stated changes): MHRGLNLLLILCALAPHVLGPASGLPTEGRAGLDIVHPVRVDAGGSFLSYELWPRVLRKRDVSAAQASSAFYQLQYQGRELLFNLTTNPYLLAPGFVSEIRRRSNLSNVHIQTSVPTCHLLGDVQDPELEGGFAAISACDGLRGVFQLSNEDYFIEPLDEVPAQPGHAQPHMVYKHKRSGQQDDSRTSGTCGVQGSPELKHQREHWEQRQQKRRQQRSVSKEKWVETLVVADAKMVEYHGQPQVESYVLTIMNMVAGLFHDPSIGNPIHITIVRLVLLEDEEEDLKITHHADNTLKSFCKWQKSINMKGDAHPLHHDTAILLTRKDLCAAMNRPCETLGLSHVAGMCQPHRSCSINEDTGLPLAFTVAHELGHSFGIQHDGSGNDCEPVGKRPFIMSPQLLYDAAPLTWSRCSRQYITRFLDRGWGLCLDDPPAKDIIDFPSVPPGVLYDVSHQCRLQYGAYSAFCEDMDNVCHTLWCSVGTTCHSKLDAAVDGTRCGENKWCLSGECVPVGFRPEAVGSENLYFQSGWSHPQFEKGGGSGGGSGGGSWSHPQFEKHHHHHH
Procedure: (§1) Purified recombinant ADAMTS-7 (as of SEQ ID NO: 1 or SEQ ID NO: 2) and purified recombinant rADAMTS-7 (rat ADAMTS-7 residues 1-575 with a carboxyl terminal Flag, SEQ ID NO: 3) were used to identify substrates from the TSP1 and COMP candidate peptides. ADAMTS-7 was diluted in reaction buffer (20 mM HEPES pH 8.0, 150 mM NaCl, 5 mM CaCl2, 0.004% Brij, 10 μM ZnCl2) for a concentration of approximately 100 nM and pre-incubated for 2 hr at room temperature prior to reaction start with 10 μM candidate peptide substrates. There were some differences between optimized buffer data and reported 2 mM Zn^2+ buffer data (Liu 2006 FASEB J); for example, the published amount of Zinc in assay buffer caused the purified ADAMTS-7 proteins to precipitate. Candidate FRET substrates based on SEQ ID NO: 4 to 10 were generated through custom synthesis by Anaspec—AnaSpec, EGT (34801 Campus Drive, Fremont, Calif. 94555, USA); as explained by the manufacturer; AnaSpec, EGT Group's pH insensitive HiLyte™ Fluor dyes are a series of fluorescent labeling dyes with fluorescence emissions that span the full visible and near infrared spectrum. HiLyte™ Fluor dyes and AnaSpec's proprietary quenchers QXL™ have been used as fluorophore and quencher pairs for fluorescence resonance energy transfer (FRET) in our Examples in the reaction buffer.
(§2) The TSP substrate sequences indicate the cleavage site (underlined) between glutamate and leucine as determined by mass spectrometry. COMP substrate cleavage products were below the detection limit of the mass spectrometer.

[2] = target: T2, rPro-hCD-FM2 ADAMTS-7 (SEQ ID NO: 2) (Homo sapiens, UniProt Q9UKP4, A119V/A123T/A127T/A171V/A193G/A200T/A28V/A36P/A42G/A66V/A78S/A97T/D77A/DEL186-188/DEL228-233/E133D/E190K/E213K/E83Q/G114S/G115N/G117S/G196D/G27H/H100Y/H124S/H234Q/K153R/L143F/L192S/L20I/P189H/P201S/P29L/P33S/P79S/Q235K/Q99P/R118N/R122Q/R174Q/R195Q/R215Q/R218H/R35L/R75A/R76Q/R87Q/R92L/S170E/S199R/S202G/S214H/T110I/T125V/V182M/V208G/V74A/W225K/Y209S); assay: FRET peptide substrate cleavage by rPro-hCD-FM2 (SEQ ID NO: 2); settings: approx. 100 nM enzyme, 10 μM peptide substrate
T2 construct: rat ADAMTS-7 signal peptide + prodomain (rat 1-217, Q216K), fusion partner (N); 2xStrep tag (C); 6xHis tag (C); made in house; host or cells: Expi293 cells
T2 sequence (Q9UKP4 with tags, fused parts or gaps with the stated changes): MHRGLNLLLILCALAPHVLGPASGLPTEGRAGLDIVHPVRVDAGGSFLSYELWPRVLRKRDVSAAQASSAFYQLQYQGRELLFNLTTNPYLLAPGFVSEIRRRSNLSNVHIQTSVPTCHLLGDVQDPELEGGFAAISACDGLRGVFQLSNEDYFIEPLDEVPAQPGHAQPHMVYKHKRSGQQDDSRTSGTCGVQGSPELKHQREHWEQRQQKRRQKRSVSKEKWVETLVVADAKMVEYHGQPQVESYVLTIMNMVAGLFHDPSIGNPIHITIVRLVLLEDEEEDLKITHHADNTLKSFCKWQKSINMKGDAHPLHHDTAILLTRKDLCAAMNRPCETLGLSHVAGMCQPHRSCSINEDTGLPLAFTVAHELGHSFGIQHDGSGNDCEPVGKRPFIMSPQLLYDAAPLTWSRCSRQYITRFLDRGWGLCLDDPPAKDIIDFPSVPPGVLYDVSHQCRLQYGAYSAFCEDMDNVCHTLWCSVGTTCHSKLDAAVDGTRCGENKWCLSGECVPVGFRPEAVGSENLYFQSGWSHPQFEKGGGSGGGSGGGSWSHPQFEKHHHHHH
Procedure: as §1, §2

[3] = target: T3, rADAMTS7 (1-575) (Rattus norvegicus, UniProt Q1EHB3); assay: FRET peptide substrate cleavage by rADAMTS7 (1-575) (SEQ ID NO: 3); settings: approx. 100 nM enzyme, 10 μM peptide substrate
T3 construct: Flag (C); made in house; host or cells: Expi293 cells
T3 sequence (Q1EHB3 with tags, fused parts or gaps): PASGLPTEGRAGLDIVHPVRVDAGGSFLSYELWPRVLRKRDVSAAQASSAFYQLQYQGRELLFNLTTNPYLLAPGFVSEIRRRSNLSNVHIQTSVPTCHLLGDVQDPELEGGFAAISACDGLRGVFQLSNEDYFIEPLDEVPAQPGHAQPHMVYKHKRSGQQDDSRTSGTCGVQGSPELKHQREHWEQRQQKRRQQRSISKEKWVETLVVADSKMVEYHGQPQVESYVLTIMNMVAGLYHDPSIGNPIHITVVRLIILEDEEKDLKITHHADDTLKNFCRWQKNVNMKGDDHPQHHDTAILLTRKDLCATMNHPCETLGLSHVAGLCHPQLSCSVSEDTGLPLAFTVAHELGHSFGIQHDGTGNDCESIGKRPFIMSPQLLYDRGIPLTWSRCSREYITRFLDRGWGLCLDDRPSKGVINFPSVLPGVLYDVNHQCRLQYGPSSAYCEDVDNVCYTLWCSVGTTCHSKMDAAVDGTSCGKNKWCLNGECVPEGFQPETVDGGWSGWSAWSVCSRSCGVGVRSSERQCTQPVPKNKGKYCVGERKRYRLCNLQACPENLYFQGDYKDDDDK
Procedure: as §1, §2

[4] = target: T4, ADAMTS-7 (Homo sapiens, UniProt Q9UKP4, A119V/A123T/A127T/A171V/A193G/A200T/A28V/A36P/A42G/A66V/A78S/A97T/D77A/DEL186-188/DEL228-233/E133D/E190K/E213K/E83Q/G114S/G115N/G117S/G196D/G27H/H100Y/H124S/H234Q/K153R/L143F/L192S/L20I/P189H/P201S/P29L/P33S/P79S/Q99P/R118N/R122Q/R174Q/R195Q/R215Q/R218H/R35L/R75A/R76Q/R87Q/R92L/S170E/S199R/S202G/S214H/T110I/T125V/V182M/V208G/V74A/W225K/Y209S); assay: ADAMTS-7 enzymatic activity FRET assay, testing of inhibitory compounds
T4 construct: rat ADAMTS-7 signal peptide + prodomain (rat 1-217), fusion partner (N); 2xStrep tag (C); 6xHis tag (C); made in house; host or cells: Expi293 cells
Procedure: Purified recombinant ADAMTS-7 (as of SEQ ID NO: 1 or SEQ ID NO: 2) was diluted in reaction buffer (20 mM HEPES pH 8.0, 150 mM NaCl, 5 mM CaCl2, 0.004% Brij, 10 μM ZnCl2) for a concentration of approximately 20 nM. 25 μl of the solution were transferred into each well of a 384-well white microtiter plate (Greiner Bio-One 781075) and 1 μl test compound solution (modulator/inhibitor dissolved in DMSO, at the corresponding concentration) or pure DMSO as a control were added per well. […] Amino acids […] are derived from Thrombospondin-1 sequence (275-289). An additional carboxyl glutamic acid was added after the QXL520 quencher to increase substrate solubility. The microtiter plate was incubated for 120 min at the temperature of 32° C. The increase of fluorescence intensity was measured in appropriate fluorescence plate reader (e.g. TECAN Ultra) using excitation wavelength of 485 nm and emission wavelength of 520 nm. IC50 values were calculated from percentage of inhibition of ADAMTS-7 activity as a function of test compound concentration. IC50 values derived using functional ADAMTS-7 according to SEQ ID NO: 1 or SEQ ID NO: 2, respectively, were not distinguishable, both laying within the experimental error.
The assays to determine the IC50 for ADAMTS inhibition were performed as described earlier herein.

| activity profile of modified S1 substrates (in words) [1] | IC50 [4] | Molecule | kcat, Enzyme SEQ ID NO: 1: rPro-hCD [1] | cleavage activity with ADAMTS-7 human catalytic domain constructs (in words) [1] | kcat, Enzyme SEQ ID NO: 2: rPro-hCD-FM2 [2] | kcat, Enzyme SEQ ID NO: 3: rADAMTS7 (1-575) [3] |
| --- | --- | --- | --- | --- | --- | --- |
|  |  | (Donor) GMQQSVRTGLPS (K-Quencher) ({donor fluorophore}-GMQQSVRTGLPS-{K(quencher)}; reading uncertain; also: donor fluorophore and quencher not given here, printed as (Donor) GMQQSVRTGLPS (K-Quencher)) [COMP1, FRET candidate peptide, COMP amino acids 73-84] | 1.22e-05 s⁻¹ | No activity | 1.27e-05 s⁻¹ | 8.17e-06 s⁻¹ |
|  |  | (Donor) SPGFRCEACPPGYS (K-Quencher) (Donor-SPGFRC(Acm)EAC(Acm)PPGYS-{K(Quencher)}; reading uncertain; also: printed as (Donor) SPGFRCEACPPGYS (K-Quencher)) [COMP2, FRET candidate peptide, COMP amino acids 146-159, Acm modified cysteines] | 6.33e-06 s⁻¹ | No activity | 6.5e-06 s⁻¹ | 8.33e-06 s⁻¹ |
| not significantly affected |  | (HiLyteFluor-488)-DELSSMVLELRGLRT-K(QXL520)-K-NH2 ({HiLyteFluor‑488}-DELSSMVLELRGLRTK(QXL520)K-NH2) [SEQ ID NO: 12, S1 peptide substrate with additional lysine after the quencher] |  |  |  |  |
|  | 550 nM | O=C1NC(=O)[C@](CNC(=O)c2cc(-c3cnn(CC4CC4)c3)no2)(C2CC2)N1 [Example 12.3, N-{[(4R)-4-cyclopropyl-2,5-dioxoimidazolidin-4-yl]methyl}-3-[1-(cyclopropylmethyl)-1H-pyrazol-4-yl]-1,2-oxazole-5-carboxamide] |  |  |  |  |
|  | 480 nM | CC(C)(C)C1(CNC(=O)c2cnc(-c3ccccc3)o2)NC(=O)NC1=O (racemic) [Example 12.4, rac-{[4-tert-butyl-2,5-dioxoimidazolidin-4-yl]methyl}-2-phenyl-1,3-oxazole-5-carboxamide] |  |  |  |  |
|  |  | (HiLyteFluor-488)-EENKELANELRRPPL-K (QXL520)-NH2 ({HiLyteFluor‑488}-EENKELANELRRPPLK(QXL520)-NH2) [TSP1-4, FRET candidate peptide, TSP1 amino acids 303-317] | 3.33e-05 s⁻¹ | No significant activity | 3.5e-05 s⁻¹ | 4.33e-05 s⁻¹ |
| not significantly affected |  | (HiLyteFluor-488)-DELSSMVLELRGLRT-K(QXL520)-E-NH2 ({HiLyteFluor‑488}-DELSSMVLELRGLRTK(QXL520)E-NH2) [SEQ ID NO: 11, S1 peptide substrate with additional carboxyl glutamic acid after the quencher] |  |  |  |  |
|  |  | (HiLyteFluor-488)-SSMVLELRGLRTIVT-K(QXL520)-NH2 ({HiLyteFluor‑488}-SSMVLELRGLRTIVTK(QXL520)-NH2) [TSP1-2, FRET peptide substrate, TSP1 amino acids 278-292] | 5.33e-05 s⁻¹ | cleaved | 4.83e-05 s⁻¹ | 0.000128 s⁻¹ |
| not significantly affected |  | (HiLyteFluor-488)-DELSSMVLELRGLRT-K(QXL520)-OH ({HiLyteFluor‑488}-DELSSMVLELRGLRTK(QXL520)-OH) [SEQ ID NO: 13, S1 peptide substrate ending in -OH] |  |  |  |  |
|  |  | (HiLyteFluor-488)-KVTEENKELANELRR-K (QXL520)-NH2 ({HiLyteFluor‑488}-KVTEENKELANELRRK(QXL520)-NH2) [TSP1-3, FRET candidate peptide, TSP1 amino acids 300-314] | 2e-05 s⁻¹ | No significant activity | 2e-05 s⁻¹ | 2.33e-05 s⁻¹ |
|  |  | (HiLyteFluor-488)-DELSSMVLELRGLRT-K(QXL520)-NH2 ({HiLyteFluor‑488}-DELSSMVLELRGLRTK(QXL520)-NH2) [TSP1-1, FRET peptide substrate for ADAMTS-7/12, TSP1 amino acids 275-289] | 0.00035 s⁻¹ | greatest specificity | 0.0004 s⁻¹ | 0.000167 s⁻¹ |
|  |  | (HiLyteFluor-488)-SSMVLELRGLRT-K(QXL520)-NH2 ({HiLyteFluor‑488}-SSMVLELRGLRTK(QXL520)-NH2) [TSP1-5, FRET peptide substrate, TSP1 amino acids 278-289] | 3.33e-05 s⁻¹ | Activity was observed | 3.5e-05 s⁻¹ | 4.17e-05 s⁻¹ |
